Data on 68 variants can be found in the RNAGym collection of RNA variant scans (doi:10.1093/nar/gkz1192).

B1: CPEB3 Ribozyme (parent)
chain: UAACAGGGGGCCACAGCAGAAGCGUUCACGUCGCAGCCCCUGUCAGAUUCUGGUGAAUCUGCGAAUUCUGCUGUAUAUCUC

The data set covers variants of B1. The data set is described as follows: self-cleavage, relative activity (ratio to wild type); higher = more cleavage; in vitro, sequencing. Put shortly: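 Barcoded CPEB3 ribozyme mutants, produced by rounds of error-prone PCR, self-cleaved while being transcribed with T7 RNA polymerase for 5 hours at 37°C and during a subsequent 15 min DNase I step before EDTA was added. Sequencing of template-switched cDNA on Illumina gave cleaved and total reads, and DNA sequencing assigned barcodes to variants. Each variant's relative activity is its cleaved/total read fraction divided by the unmutated ribozyme's fraction, averaged across three batches. A variant needed a minimum of 5 reads.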
For the variant UAACAGGGGGCCACAGCAGAAGCUUUCACGUCGCAGCCCCUGUCAGAUUCUGGUGAAUCAGCGAAUUCUGCUGUAUAUCUC, the self-cleavage was determined as 0.16. Turning to UAACAGGGGGCCACAGCAGAAGCGAUCACGUCGCAGUCCCUGUCAGAUUCUGGUGAAUCUGCGAAUUCUGCUGUAUAUCUC, the self-cleavage came to 0.34. In the case of UAACAGGGGGCCACAGCAGAAGCGAUCACGUCGCAGCCCCUGUCAGAUUCUGGUGAAUCUGCGAAUUAUGCUGUAUAUCUC, the self-cleavage was determined as 0.19. With UAACAGGGGGCCACAGCAGAAGCGAUCACGUCGAAGCCCCUGUCAGAUUCUGGUGAAUCUGCGAAUUCUGCUGUAUAUCUC, the self-cleavage was 0.4.

For UAACAGGGGGCCACAGCAGAAGCGAUCACGUCGUAGCCCCUGUCAGAUUCUGGUGAAUCUGCGAAUUCUGCUGUAUAUCUC, the self-cleavage was found to be 0.56. Regarding UAACAGGGGGCCACAGCAGAAGCGAUCACGUCGCAGCCCCUGUCAGAUUCUGGUGAAUCUGCGAGUUCUGCUGUAUAUCUC, the self-cleavage is 0.28.

Regarding UAACAGGGGGCCACAGCAGAAGCGAUCACGUCGCAGCCCCUGUCAGAUUCUGGUGAAUCUGCGACUUCUGCUGUAUAUCUC, the self-cleavage is 0.08. Regarding UAACAGGGGGCCACAGCAGAAGCGAUCACGUCGCAGCCCCUGUCAGAUUCUGGUGAAUUUGCGAAUUCUGCUGUAUAUCUC, the self-cleavage stood at 0.09. UAACAGGGGGCCACAGCAGAAGCGAUCACGUCGCAGCUCCUGUCAGAUUCUGGUGAAUCUGCGAAUUCUGCUGUAUAUCUC: the self-cleavage was 0.23. For UAACAGGGGGCCACAGCAGAAGCGAUCACGUCGCAGCACCUGUCAGAUUCUGGUGAAUCUGCGAAUUCUGCUGUAUAUCUC, the self-cleavage amounted to 0.18.

Consider UAACAGGGGGCCACAGCAGAAGCGAUCACGUCGCAGCCCCUGUCAGAUUCUGGUGUAUCUGCGAAUUCUGCUGUAUAUCUC, for which the self-cleavage is 0.27. UAACAGGGGGCCACAGCAGAAGCGAUCACGUCGCAGCCCCUGUCAGAUUCUGGUGGAUCUGCGAAUUCUGCUGUAUAUCUC: the self-cleavage was determined as 0.27. In the case of UAACAGGGGGCCACAGCAGAAGCUUUCACGUCGCAGCCCCUGUCAGAUUCUGGUGAAUCUGCGAAUUCUGCUGUAAAUCUC, the self-cleavage is 0.4. On to UAACAGGGGGCCACAGCAGAAGCUUUCACGUCGCAGCCCCUGUAAGAUUCUGGUGAAUCUGCGAAUUCUGCUGUAUAUCUC, for which the self-cleavage came to 0.18. Consider UAACAGGGGGCCACAGCAGAAGCUUUCACGUCGCAGCCCCUGUCAGAUUCUGGUGAAUCUGCGAAUCCUGCUGUAUAUCUC, for which the self-cleavage turned out to be 0.1.

Regarding UAACAGGGGGCCACAGCAGAAGCUUUCACGUCGCAGCCCCUGUCAGAUUCUGGUGAAUCUGCGAAUACUGCUGUAUAUCUC, the self-cleavage amounted to 0.16. With UAACAGGGGGCCACAGCAGAAGCUUUCACGUCGCAGCCCCUGUCAGAUUCCGGUGAAUCUGCGAAUUCUGCUGUAUAUCUC, the self-cleavage was found to be 0.2. With UAACAGGGGGCCACAGCAGAAGCUUUCACGUCGCAGCCCCUGUCAGAUUCAGGUGAAUCUGCGAAUUCUGCUGUAUAUCUC, the self-cleavage worked out at 0.1.

Regarding UAACAGGGGGCCACAGCAGAAGCUUCCACGUCGCAGCCCCUGUCAGAUUCUGGUGAAUCUGCGAAUUCUGCUGUAUAUCUC, the self-cleavage came out at 0.11.

UAACAGGGGGCCACAGCAGAAGCUUUCACGUCGCAGCCCCUGUCAGAUUCUGGUGAACCUGCGAAUUCUGCUGUAUAUCUC: the self-cleavage was found to be 0.17.

Consider UAACAGGGGGCCACAGCAGAAGCUUUCACGUCGCAGCCCCAGUCAGAUUCUGGUGAAUCUGCGAAUUCUGCUGUAUAUCUC, for which the self-cleavage is 0.23. Then UAACAGGGGGCCACAGCAGAAGCUUUCACGUCGCAGCCCCUGUCAGAUUCUGGUGAAUCUGCGAAUUCUGCUGUGUAUCUC, with 0.08; and UAACAGGGGGCCACAGCAGAAGCUUUCACGUCGCAGCCCCUGUCAGAUUCUGGUGAAUCUGCGAAUUCUGCUGUAUAUCAC, with 0.22. Turning to UAACAGGGGGCCACAGCAGAAGCUUUCACGUCGCAGCCCCUGUCAGAUUCUGGUGAAUCUGCGAAUUCUGCUGUAUAUCCC, the self-cleavage was found to be 0.41. Take UAACAGGGGGCCACAGCAGAAGCGAUCACGUCGCAGCCCCUGUCAGUUUCUGGUGAAUCUGCGAAUUCUGCUGUAUAUCUC: the self-cleavage turned out to be 0.27. For UAACAGGGGGCCACAGCAGAAGCGAUCACGUCGCAGCCCCUGUCAGGUUCUGGUGAAUCUGCGAAUUCUGCUGUAUAUCUC, the self-cleavage turned out to be 0.33.

As for UAACAGGGGGCCACAGCAGAAGCGAUCACGUCGCAGCCCCUGUCAGAUUCUGGUGAAUCUGCGAAUUCUGCUGUAUAUCUU, the self-cleavage is 0.57. In the case of UAACAGGGGGCCACAGCAGAAGCGAUCACGUCGCAGCCCCUGUCAGAUUCUGGUGAUUCUGCGAAUUCUGCUGUAUAUCUC, the self-cleavage is 0.18. For UAACAGGGGGCCACAGCAGAAGCGAUCACGUCGCAGCCCCUGUCAGAUUCUGGUGAGUCUGCGAAUUCUGCUGUAUAUCUC, the self-cleavage is 0.3. Consider UAACAGGGGGCCACAGCAGAAGCUUUCACGCCGCAGCCCCUGUCAGAUUCUGGUGAAUCUGCGAAUUCUGCUGUAUAUCUC, for which the self-cleavage stood at 0.37.

As to UAACAGGGGGCCACAGCAGAAGCGAUCACGUCGCAGCCCCUGUCAGAUUCUGGUGAAUCUGCGAAUUCUGCUGUAUAUUUC, the self-cleavage worked out at 0.27. In the case of UAACAGGGGGCCACAGCAGAAGCGAUCACGUCGCAGCCCCUGUCAGAUUCUGGUGAAUCUGCGAAUUCUGCUGUAUCUCUC, the self-cleavage worked out at 0.19. For the variant UAACAGGGGGCCACAGCAGAAGCGAUCACGUCGCAGCCCCUGUCAGAUUCUGGUGAAUCUGCGAAUUCUGCUGUAUUUCUC, the self-cleavage amounted to 0.23.

Regarding UAACAGGGGGCCACAGCAGAAGCGAUCACGUCGCAGCCCCUGUCAGAUUCUGGUGAAUCUGCGAAUUCUGCUGUAUGUCUC, the self-cleavage came to 0.18. Turning to UAACAGGGGGCCACAGCAGAAGCUUUCACGUCGCAGCCCCUGUCAGAUACUGGUGAAUCUGCGAAUUCUGCUGUAUAUCUC, the self-cleavage amounted to 0.23. UAACAGGGGGCCACAGCAGAAGCGAUCACGUCGCAGCCCCUGUCAGAUUCUGGUGAAUCUGCGAAUUCUGCUGUAUAUCUC: the self-cleavage was found to be 0.3. As to UAACAGGGGGCCACAGCAGAAGCUUUCACGUCGCAGCCCCUGUCAGAUUCUGGCGAAUCUGCGAAUUCUGCUGUAUAUCUC, the self-cleavage is 0.17. As to UAACAGGGGGCCACAGCAGAAGCUUUCACGUCGCAGCUCCUGUCAGAUUCUGGUGAAUCUGCGAAUUCUGCUGUAUAUCUC, the self-cleavage is 0.1. Regarding UAACAGGGGGCCACAGCAGAAGCGAUCACGUCGCAGCCCCUGUAAGAUUCUGGUGAAUCUGCGAAUUCUGCUGUAUAUCUC, the self-cleavage is 0.17. Then UAACAGGGGGCCACAGCAGAAGCGAUCACGUCGCAGCCCAUGUCAGAUUCUGGUGAAUCUGCGAAUUCUGCUGUAUAUCUC, with 0.22. For the variant UAACAGGGGGCCACAGCAGAAGCGAUCACGUCGCAGCCCCUGUCAGAUUCUGGUGAAUCUGCGUAUUCUGCUGUAUAUCUC, the self-cleavage came to 0.19.

On to UAACAGGGGGCCACAGCAGAAGCGAUCACGUCGCAGCCCCUGUCAGAUUCUGGUGAAUCUGCGGAUUCUGCUGUAUAUCUC, for which the self-cleavage stood at 0.33.

For the variant UAACAGGGGGCCACAGCAGAAGCGAUCCCGUCGCAGCCCCUGUCAGAUUCUGGUGAAUCUGCGAAUUCUGCUGUAUAUCUC, the self-cleavage was found to be 0.39. Then UAACAGGGGGCCACAGCAGAAGCGAUCGCGUCGCAGCCCCUGUCAGAUUCUGGUGAAUCUGCGAAUUCUGCUGUAUAUCUC, with 0.28; and UAACAGGGGGCCACAGCAGAAGCGAUCUCGUCGCAGCCCCUGUCAGAUUCUGGUGAAUCUGCGAAUUCUGCUGUAUAUCUC, with 0.52. For UAACAGGGGGCCACAGCAGAAGCGAUCACGUAGCAGCCCCUGUCAGAUUCUGGUGAAUCUGCGAAUUCUGCUGUAUAUCUC the value was 0.16; for UAACAGGGGGCCACAGCAGAAGCGAUCACGUUGCAGCCCCUGUCAGAUUCUGGUGAAUCUGCGAAUUCUGCUGUAUAUCUC, 0.38; for UAACAGGGGGCCACAGCAGAAGCGAUCACGUCGCAGCCCCUGUCAGAUUCUGGUGAAUCUGUGAAUUCUGCUGUAUAUCUC, 0.19. Then UAACAGGGGGCCACAGCAGAAGCGAUCACGUCGCAGCCCCUGUCAGAUUCUGGUGAAUCUGGGAAUUCUGCUGUAUAUCUC, with 0.39; and UAACAGGGGGCCACAGCAGAAGCGAUCACGUCGCAGCCCCUGUCAGAUUCUGGUGAAUCUGAGAAUUCUGCUGUAUAUCUC, with 0.16; and UAACAGGGGGCCACAGCAGAAGCGAUCACGUCGCAGCCCCUGUCAGAUUAUGGUGAAUCUGCGAAUUCUGCUGUAUAUCUC, with 0.41. As for UAACAGGGGGCCACAGCAGAAGCGAUCAGGUCGCAGCCCCUGUCAGAUUCUGGUGAAUCUGCGAAUUCUGCUGUAUAUCUC, the self-cleavage is 0.25. As for UAACAGGGGGCCACAGCAGAAGCGAUCAUGUCGCAGCCCCUGUCAGAUUCUGGUGAAUCUGCGAAUUCUGCUGUAUAUCUC, the self-cleavage was found to be 0.22. For UAACAGGGGGCCACAGCAGAAGCUUUCACGUCGCAGCCCCUGUCAGACUCUGGUGAAUCUGCGAAUUCUGCUGUAUAUCUC, the self-cleavage is 0.12.

UAACAGGGGGCCACAGCAGAAGCUUUCACGUCGCAGCCCCUGUCAGAUUCUGGUGAAUCUGCGAAUUCUGCUGUAUUUCUC: the self-cleavage stood at 0.15. In the case of UAACAGGGGGCCACAGCAGAAGCGAUCACGUCGCUGCCCCUGUCAGAUUCUGGUGAAUCUGCGAAUUCUGCUGUAUAUCUC, the self-cleavage was 0.29. In the case of UAACAGGGGGCCACAGCAGAAGCGAUCACGUCGCGGCCCCUGUCAGAUUCUGGUGAAUCUGCGAAUUCUGCUGUAUAUCUC, the self-cleavage turned out to be 0.31. As to UAACAGGGGGCCACAGCAGAAGCGAUCACGUCGCCGCCCCUGUCAGAUUCUGGUGAAUCUGCGAAUUCUGCUGUAUAUCUC, the self-cleavage is 0.2. Regarding UAACAGGGGGCCACAGCAGAAGCGAUCACGUCGCAGCCCCUGUCAGAUUCUGGUGAAUCUGCGAAUUCUGCUGUUUAUCUC, the self-cleavage came to 0.32. Turning to UAACAGGGGGCCACAGCAGAAGCGAUCACGUCGCAGCCCCUGUCAGAUUCUGGUGAAUCUGCGAAUUCUGCUGUGUAUCUC, the self-cleavage was determined as 0.23.

Regarding UAACAGGGGGCCACAGCAGAAGCUAUCACGUCGCAGCCCCUGUCAGAUUCUGGUGAAUCUGCGAAUUCUGCUGUAUAUCUC, the self-cleavage was found to be 0.3. On to UAACAGGGGGCCACAGCAGAAGCGAUCACGUCGCAGCCCCUGUCUGAUUCUGGUGAAUCUGCGAAUUCUGCUGUAUAUCUC, for which the self-cleavage amounted to 0.19. On to UAACAGGGGGCCACAGCAGAAGCGAUCACGUCGCAGCCCCUGUCGGAUUCUGGUGAAUCUGCGAAUUCUGCUGUAUAUCUC, for which the self-cleavage amounted to 0.27. For UAACAGGGGGCCACAGCAGAAGCGAUCACGUCGCAGCCCCUGUCCGAUUCUGGUGAAUCUGCGAAUUCUGCUGUAUAUCUC, the self-cleavage amounted to 0.6. In the case of UAACAGGGGGCCACAGCAGAAGCGAUCACAUCGCAGCCCCUGUCAGAUUCUGGUGAAUCUGCGAAUUCUGCUGUAUAUCUC, the self-cleavage was 0.13.

In the case of UAACAGGGGGCCACAGCAGAAGCUUUCACGUCGCAGCCCCUGUCAGAUUCUGGUGAAUCUGCGAAUUCUGCCGUAUAUCUC, the self-cleavage came to 0.52.

On to UAACAGGGGGCCACAGCAGAAGCUUUCACGUCGCAGCCCCUGUCAGAUUCUGGUGAAUCUGCGAAUUCUGCAGUAUAUCUC, for which the self-cleavage is 0.11. For UAACAGGGGGCCACAGCAGAAGCGAUUACGUCGCAGCCCCUGUCAGAUUCUGGUGAAUCUGCGAAUUCUGCUGUAUAUCUC the value was 0.15.
